Patent publication US20220228157A1, “GENE EDITING IN DIVERSE BACTERIA” (priority 2019, published 2022)

Legend:
[1] = system: E. coli; assay: Fifteen cycles of MAGE with pool of 15 oligos, editing efficiency by NGS; assay type: cell-based, Escherichia coli; conditions: 15 separate mutations, one week
Procedure: E. coli populations expressing either an efficient SSAP (SEQ ID NO: 157), an efficient SSAP/SSB pair (SEQ ID NO: 157/SEQ ID NO: 384), or the widely-used Redβ were taken through fifteen cycles of MAGE and transformed each cycle with a 10 μM pool comprising 15 unique oligos. Editing efficiency at each targeted locus was measured by NGS and averaged (FIG. 3).

[2] = system: M. smegmatis; assay: Allelic recombination frequency, selective vs non-selective plates; assay type: cell-based, Mycobacterium smegmatis
Procedure: A single colony of M. smegmatis was grown overnight to saturation. The next day 25 μL of dense culture was inoculated into 5 mL of fresh media in the evening and grown overnight to an OD600 of 0.9. Cells were pelleted at 4° C. by centrifugation at 3,500×g for 10 minutes and washed twice with 10 mL ice-cold 10% glycerol. Cells were resuspended in 360 μL ice-cold 10% glycerol and transferred along with 10 μL of DNA to a pre-chilled 0.2 cm electroporation cuvette.
Electrocompetent cells were electroporated with 90-mer oligos at: 1 uM for E. coli, 50 μg for L. lactis, and 10 uM for C. crescentus. 70-mer oligos were used at 1 μg for M. smegmatis. All oligos were obtained from IDT and can be found under “Oligonucleotides for genome editing” in materials and methods. For dsDNA experiments L. lactis was electroporated with 1.5 μg purified linear dsDNA. Cells were electroporated using a Bio-Rad gene pulser set to 25 μF, 200 S2, and 1.8 kV for E. coli, 2.0 kV for L. lactis, and 1.5 kV for C. crescentus and to 1000Ω and 2.5 kV for M. smegmatis. […] Colonies were counted using a custom script in Fiji, and allelic recombination frequency was calculated by dividing the number of colonies on selective plates, with the number of colonies on non-selective plates.

[3] = system: Citrobacter freundii ATCC 8090; assay: Recombineering efficiency by LacZ screening; assay type: cell-based; conditions: pORTMAGE-based constructs
Description: (§1) To test the activity of PapRecT and CspRecT in these three organisms, the broad-host-range pORTMAGE system (Nyerges et al., Proc. Natl. Acad. Sci. U.S.A. 113, 2502-2507 (2016)) was built on as described above. For experiments in E. coli PapRecT or CspRecT was subcloned in place of Redβ into pORTMAGE311B (Szili et al., Antimicrob. Agents Chemother. AAC.00207-19 (2019) doi:10.1128/AAC.00207-19) (FIGS. 10A-10B; Addgene accession: #120418), which transiently disrupts MMR with EcMutL_E32K, and whose RSF1010 origin of replication and m-toluic-acid-based expression system allows the plasmid to be deployed over a broad range of bacterial hosts (Honda et al., Proc. Natl. Acad. Sci. U.S.A. 88, 179-183 (1991); Gawin et al., Microb. Biotechnol. 10, 702 (2017)). These same pORTMAGE-based constructs were used for testing in C. freundii and K. pneumoniae. […]
(§2) Oligos were designed to introduce I) premature STOP codons into lacZ for E. coli, K. pneumoniae, and C. freundii, or II) RpsL K43→R; GyrA T83→I; ParC S83→L; RpoB D521→V, or a premature STOP codon into nfxB for P. aeruginosa. […] After recovery overnight, cells were plated at empirically-determined dilutions to a density of 200-500 colonies per plate. […] In all cases, allelic-replacement frequencies were calculated by dividing the number of recombinant CFUs by the number of total CFUs. […]

[4] = system: Klebsiella pneumoniae ATCC 10031; assay: Recombineering efficiency by LacZ screening; assay type: cell-based; conditions: pORTMAGE-based constructs
Description: as §1, §2

B1: Redβ: Redβ SSAP from Enterobacteria phage λ, SEQ ID NO: 474 (protein)
chain: MSTALATLAGKLAERVGMDSVDPQELITTLRQTAFKCDASDAQFIALLIVANQYGLNPWTKEIYAFPDKQNGIVPVVGVDGWSRIINENQQFDGMDFEQDNESCTCRIYRKDRNHPICVTEWMDECRREPFKTREGREITGPWQSHPKRMLRHKAMIQCARLAFGFAGIYDKDEAERIVENTAYTAERQPERDITPVNDETMQEINTLLIALDKTWDDDLLPLCSQIFRRDIRASSELTQAEAVKALGFLKQKATEQKVAA
modifications: Bacteriophage Lambda
Editing efficiency, averaged over targeted loci [1]: ~20%

B2: PapRecT: SSAP from Pseudomonas aeruginosa, SEQ ID NO: 24, UniParc ID: UPI0001E9E6CB (protein, listed as Pseudomonas aeruginosa)
chain: MGTALTPLLTKFATRYEMGTTPEEVANTLKQTCFKGQVNDSQMVALLIVADQYKLNPFTKELYAFPDKNNGIVPVVGVDGWARIINENPQFDGMEFSMDQQGTECTCKIYRKDRSHAISATEYMAECKRNTQPWQSHPRRMLRHKAMIQCARLAFGFAGIYDQDEAERIVERDVTPAEQYEDVSEAICLIKDSPTMEDLQAAFSNAWKAYKTKGARDQLTAAKDQRKKELLDAPIDVEFEETGDDRAA
Editing efficiency [2]: enabled high efficiency editing

B3: CspRecT: RecT SSAP (UniParc ID: UPI0001837D7F) from a phage of Collinsella stercoris (protein)
chain: MNQIVKFTDDSGLAVQVTPDDVRRYICENATEKEVGLFLQLCQTQRLNPFVKDAYLVKYGGAPASMITSYQVFNRRACRDANYDGIKSGVVVLRDGDVVHKRGAACYKKAGEELIGGWAEVRFKDGRETAYAEVALDDYSTGKSNWAKMPGVMIEKCAKAAAWRLAFPDTFQGMYAAEEMDQAQQPEQVRAQAEQPVDLQPIRELFKPYCEHFGITPAEGMTAVCGAVGAEGMHSMTEQQARRARAWMEEEMAAPAVEAEYEVVDEGEVF
modifications: Collinsella stercoris DSM 13279
Editing performance in C. freundii [3]: optimal choice of protein | Editing performance in K. pneumoniae [4]: optimal choice of protein
